Experimental data from article PMC5006017.

Molecular target: syntenin-1 N-terminal wild-type peptide, biotinylated (UniProt O00560)
Experiment: SPR; BIAcore 3000; biotinylated syntenin-1 N-terminal peptides immobilised on streptavidin-coupled CM5 chips, ALIX V-domain injected at 20 μl/min; 10 mM HEPES pH 7.4, 150 mM NaCl, 0.005% Surfactant P20; equilibrium analysis, one-site binding model

- Kd: 29 µM
Substance: ALIX V-domain (ALIX 364-716) (from UniProt Q8WUM4 364-716) (domain or fragment)
